Target: HLA-B*44:05 (Homo sapiens, UniProt P01889, A223V/A65T/A93T/A95T/D201E/D98Y/E176V/E187L/E204Q/E69K/G107R/H137Y/K202T/L105A/L119I/N104T/N87E/Q56L/Q94N/R106L/R155S/R180D/S101N/S121R/S35A/S48T/T118I/V36M/W191S/Y91S)
Assay: MHC binding assay (UV-ligand exchange, β2m ELISA, peptide exchange yield)
Settings: binding to HLA-B*44:05
Excerpt: Candidate peptides for T cell-based therapies according to the present invention were further tested for their MHC binding capacity (affinity). The individual peptide-MHC complexes were produced by UV-ligand exchange, where a UV-sensitive peptide is cleaved upon UV-irradiation and exchanged with the peptide of interest as analyzed. Only peptide candidates that can effectively bind and stabilize the peptide-receptive MHC molecules prevent dissociation of the MHC complexes. To determine the yield of the exchange reaction, an ELISA was performed based on the detection of the light chain (β2m) of stabilized MHC complexes. The assay was performed as generally described in Rodenko et al. (Rodenko et al., 2006)
96 well MAXISorp plates (NUNC) were coated over night with 2 μg/ml streptavidin in PBS at room temperature, washed 4× and blocked for 1 h at 37° C. in 2% BSA containing blocking buffer. Refolded HLA-A*02:01/MLA-001 monomers served as standards, covering the range of 15-500 ng/ml. Peptide-MHC monomers of the UV-exchange reaction were diluted 100-fold in blocking buffer. Samples were incubated for 1h at 37° C., washed four times, incubated with 2 μg/ml HRP conjugated anti-β2m for 1h at 37° C., washed again and detected with TMB solution that is stopped with […]. Absorption was measured at 450 nm.

Row | Substance | Peptide exchange (MHC class I binding score, peptide exchange yield)
1 | 116 (AEANPRDLGASW; listed as Homo sapiens) [compound 116] | +++ (>50 = +++)
2 | 117 (SEVPVDSHY; listed as Homo sapiens) [compound 117] | +++ (>50 = +++)
3 | 118 (SEVPVDSHYY; listed as Homo sapiens) [compound 118] | +++ (>50 = +++)
4 | 119 (VEVKYEGHW; listed as Homo sapiens) [compound 119] | ++++ (>75% = ++++)
5 | 120 (VTEGAVEVKY; listed as Homo sapiens) [compound 120] | + (>10% = +)
6 | 121 (YENIPVDKV; listed as Homo sapiens) [compound 121] | +++ (>50 = +++)
7 | 122 (GESVSWHLF; listed as Homo sapiens) [compound 122] | +++ (>50 = +++)
8 | 123 (DEINHQSL; listed as Homo sapiens) [compound 123] | ++ (>20% = ++)
9 | 124 (NENLDYAIL; listed as Homo sapiens) [compound 124] | ++++ (>75% = ++++)
10 | 125 (LEVLHQGQW; listed as Homo sapiens) [compound 125] | +++ (>50 = +++)
11 | 126 (SEASQSPQY; listed as Homo sapiens) [compound 126] | +++ (>50 = +++)
12 | 127 (RYFDENIQKFIW; listed as Homo sapiens) [compound 127] | +++ (>50 = +++)
13 | 128 (TELTEARVQVW; listed as Homo sapiens) [compound 128] | +++ (>50 = +++)
14 | 129 (EEAMKRLSY; listed as Homo sapiens) [compound 129] | ++ (>20% = ++)
15 | 130 (REYQEVMNSKL; listed as Homo sapiens) [compound 130] | +++ (>50 = +++)
16 | 131 (RESHLTEIRQY; listed as Homo sapiens) [compound 131] | ++ (>20% = ++)
17 | 132 (AESFTSGRHYW; listed as Homo sapiens) [compound 132] | ++++ (>75% = ++++)
18 | 133 (IEAPKLMVV; listed as Homo sapiens) [compound 133] | + (>10% = +)
19 | 134 (IEIKDRLQL; listed as Homo sapiens) [compound 134] | +++ (>50 = +++)
20 | 135 (QEIDRGQYI; listed as Homo sapiens) [compound 135] | ++++ (>75% = ++++)
21 | 136 (EEMPEEIHL; listed as Homo sapiens) [compound 136] | +++ (>50 = +++)
22 | 137 (EKGLISAF; listed as Homo sapiens) [compound 137] | ++ (>20% = ++)
23 | 138 (KEAPNIVTL; listed as Homo sapiens) [compound 138] | ++++ (>75% = ++++)
24 | 139 (AESDFSNNML; listed as Homo sapiens) [compound 139] | +++ (>50 = +++)
25 | 140 (TEHSGIYSC; listed as Homo sapiens) [compound 140] | ++ (>20% = ++)
26 | 141 (SEKWFRMGF; listed as Homo sapiens) [compound 141] | +++ (>50 = +++)
27 | 142 (QELFLHPVL; listed as Homo sapiens) [compound 142] | ++++ (>75% = ++++)
28 | 143 (HEIIIRSHW; listed as Homo sapiens) [compound 143] | +++ (>50 = +++)

Now from value to substance:

Row | Peptide exchange (MHC class I binding score, peptide exchange yield) | Substance
29 | +++ (>50 = +++) | 144 (IEAYLERIGY; listed as Homo sapiens) [compound 144]
30 | ++ (>20% = ++) | 145 (EELRMLSF; listed as Homo sapiens) [compound 145]
31 | +++ (>50 = +++) | 146 (MEELRMLSF; listed as Homo sapiens) [compound 146]
32 | ++ (>20% = ++) | 147 (RMLSFQQMTW; listed as Homo sapiens) [compound 147]
33 | +++ (>50 = +++) | 148 (KESDAGRYY; listed as Homo sapiens) [compound 148]
34 | ++ (>20% = ++) | 149 (AETEPERHLG; listed as Homo sapiens) [compound 149]
35 | ++ (>20% = ++) | 150 (SEVFHVSEA; listed as Homo sapiens) [compound 150]
36 | ++ (>20% = ++) | 151 (TELQIPSF; listed as Homo sapiens) [compound 151]
37 | +++ (>50 = +++) | 152 (HENLIEDF; listed as Homo sapiens) [compound 152]
38 | ++++ (>75% = ++++) | 153 (IEIILLSGSL; listed as Homo sapiens) [compound 153]
39 | ++ (>20% = ++) | 154 (NEAGEMIKHY; listed as Homo sapiens) [compound 154]
40 | ++++ (>75% = ++++) | 155 (TEDARHPESW; listed as Homo sapiens) [compound 155]
41 | ++ (>20% = ++) | 157 (SQDVAGTTF; listed as Homo sapiens) [compound 157]
42 | +++ (>50 = +++) | 158 (VEEERYTGQW; listed as Homo sapiens) [compound 158]
43 | ++ (>20% = ++) | 159 (EEVQDGKVI; listed as Homo sapiens) [compound 159]
44 | +++ (>50 = +++) | 160 (AEIATTGQLY; listed as Homo sapiens) [compound 160]
45 | +++ (>50 = +++) | 161 (GESSEVKAVL; listed as Homo sapiens) [compound 161]
46 | +++ (>50 = +++) | 162 (EAYDIELNKW; listed as Homo sapiens) [compound 162]

Row | Peptide exchange (MHC class I binding score, peptide exchange yield) | Substance
47 | ++ (>20% = ++) | 163 (AEDEDGKIVGY; listed as Homo sapiens) [compound 163]
48 | ++ (>20% = ++) | 164 (DEDGKIVGY; listed as Homo sapiens) [compound 164]
49 | +++ (>50 = +++) | 165 (EEIEAHIAL; listed as Homo sapiens) [compound 165]
50 | ++++ (>75% = ++++) | 166 (EEQDFINNRY; listed as Homo sapiens) [compound 166]
51 | +++ (>50 = +++) | 167 (AETENRYCV; listed as Homo sapiens) [compound 167]
52 | ++ (>20% = ++) | 168 (EEGPSVPKIY; listed as Homo sapiens) [compound 168]
53 | ++++ (>75% = ++++) | 169 (KEHNSSVPWSS; listed as Homo sapiens) [compound 169]
54 | ++++ (>75% = ++++) | 170 (REMFVFKDQW; listed as Homo sapiens) [compound 170]
55 | ++ (>20% = ++) | 171 (WEVVHTVF; listed as Homo sapiens) [compound 171]
56 | +++ (>50 = +++) | 172 (RENPGMFSW; listed as Homo sapiens) [compound 172]
57 | +++ (>50 = +++) | 173 (SEHSLEGQKF; listed as Homo sapiens) [compound 173]
58 | +++ (>50 = +++) | 174 (DENDAGNLITF; listed as Homo sapiens) [compound 174]
59 | +++ (>50 = +++) | 176 (GETQQHIQL; listed as Homo sapiens) [compound 176]
60 | + (>10% = +) | 177 (LEEPMPFFY; listed as Homo sapiens) [compound 177]
61 | +++ (>50 = +++) | 178 (MEGAALLKIF; listed as Homo sapiens) [compound 178]
62 | ++ (>20% = ++) | 179 (EEHIFSAF; listed as Homo sapiens) [compound 179]
63 | ++++ (>75% = ++++) | 180 (EEHSSKLQTSL; listed as Homo sapiens) [compound 180]

Source: patent publication US12065471B2, “B*44 restricted peptides for use in immunotherapy against cancers and related methods” (Immatics Biotechnologies GmbH, priority 2018, dated 2024)
